Values of other authors as cited in publication PMC10935306.

Molecular target: Ship2 Sam (Homo sapiens) (UniProt O15357)
Chain of UniProt O15357 (O15357 1193-1258): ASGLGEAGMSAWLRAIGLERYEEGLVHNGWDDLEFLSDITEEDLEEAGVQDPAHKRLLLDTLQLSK

- Kd: 750 nM
Substance: EphA2 Sam (from UniProt P29317)
